Sequences and labels used below:
B1: 75110_01D24A (antibody, V domains shown)
VH: QVQLQQWGAGLLKPSETLSLTCAVYGGSFSGYYWSWIRQPPGKGLEWIGEINHSGSTNYNPSLKSRVTISVDTSENQFSLKLNSVTAADTAVYYCARLVNWFDPWGQGTLVTVSS
VL: EIQMTQSPSSVSASVGDRVTITCRASQDISNWLAWYQQKPGKAPNLLIFAASSLQTGVPSRFSGSGSGTDFTLTISSLQPDDFATYYCQQANSFPYSFGQGTNLGIK
notes: Tested as antibody purified from AlivaMab Mouse hybridoma supernatant (captured by anti-mouse IgG Fc)
B2: 75110_03L12A (antibody, V domains shown)
VH: QVQLQQWGAGLLKPSETLSLTCAVYGGSFSGYYWSWIRQPPGKGLEWIGEINHSGSTNYNPSLKSRVTISVDTSENQFSLTLISVTAADTAVYYCVRLINWFDPWGQGTLVTVSS
VL: DIQMTQSPSSVSASVGDRVTITCRASQDISNWLAWYQQKPGKAPKLLIFAASSLQSGVPSRFSGSGSGTDFTLTISSLQPDDFATYYCQQANSFPYTFGQGTNLGIK
notes: as for B1
B3: 75110_03D16A (antibody, V domains shown)
VH: EVQLVESGGGLVQPGGSLRLSCAASGFTFSSYWMSWVRQAPGKGLEWVANINQDGGEKYYVDSVKGRFTISRDNAKNSLYLQMNSLRAEDTAVYYCVREGGQWLALDYWGQGTLVTVSS
VL: DIQMTQSPSSVSASVGDRVTITCRASQGISSWLTWYQQKPGKAPKFLIYAASSLQSGVPSRFSGSGFGTDFTLTISSLQPEDFATYYCQQANSFPWTFGQGTKVEIK
notes: as for B1
B4: 75110_01C18A (antibody, V domains shown)
VH: EVQLVESGGGLIQPGGSLRLSCAASGFTVSSNYMNWVRQAPGKGLEWVSVIYAGDNTYSADSVKGRFTISRDNSNNTLCLQMNSLRAEDTAVYYCAREGGTTGAFDIWGQGTMVTVSS
VL: DIQMTQSPSSVSASVGDRVTITCRASQGINSWLAWYQQKPGKAPKLLIYAASSLQSGVPSRFSGSGSGTDFTLTISSLQPEDFATYYCQQGNSFPYTFGQGTKLEIK
notes: as for B1
B5: 75110_04K10A (antibody, V domains shown)
VH: EVQLVESGGGLVQPGGSLRLSCAASGFTFSSYWMSWVRQAPGKGLEWVANINQDGSEKYYVDSVKGRFTISRDNAKNSLYLQLNSLRAEDTAMYYCAREGGQWLSLDYWGQGTLVTVSS
VL: DIQMTQSPSSVSASVGDRVTITCRASQGISSWLAWYQQKPGKAPKVLIYGVSSFQSGVPSRFSGSGSGTDFILTISSLQPEDFATYYCQQANSFPWTFGQGTKVEIK
notes: as for B1
B6: 75110_04F22A (antibody, V domains shown)
VH: EVQLVESGGGLVQPGGSLRLSCAASGFTFSSYDIHWVRQATGKGLEWVSTIGTAGDTYYPGSVKGRFTISRENAKNSLYLQMNSLRAGDTAVYYCARGGYYYYGMDVWGQGTTVTVSS
VL: EIVLTQSPGTLSLSPGERATLSCRASQSVYSSYLAWYQQKPGQAPRLLIYGASSRATGIPDRFSGSGSGTDFTLTISRLEPEDFAVYYCQQFGTSPFTFGPGTKVDIK
notes: as for B1
B7: 75110_01N04A (antibody, V domains shown)
VH: EVQLVESGGGLVQPGGSLRLSCAASGFTFSNYDMHWVRQATGKGLEWVSTIGTAGDTYYPGSVKGRFTISRENAKNSLYLQMNSLRAGDTAVYYCARGGDFYYGLDVWGQGTTVTVSS
VL: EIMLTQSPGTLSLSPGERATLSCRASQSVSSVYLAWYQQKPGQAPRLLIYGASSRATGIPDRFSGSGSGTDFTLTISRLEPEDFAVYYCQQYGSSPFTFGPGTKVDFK
notes: as for B1
B8: 75110_02I18A (antibody, V domains shown)
VH: EVQVVESGGGLVQPGGSLRLSCAASGFTFSSYDMHWVRQATGKGLEWVSTIGTAGDTYYPGSVKGRFTISRENAKNSLYLQMNSLRAGDTAVYYCARGGYYYYGMDVWGQGTTVTVSS
VL: EIVLTQSPGTLSLSPGERATLSCRASQSVSSSYLAWYQQKPGQSPRLLIHGASSRATGIPDRVSGSGSGTDFTLTISRLEPEDFAVYYCQQYGSSPFTFGPGTKVDIK
notes: as for B1
B9: 75110_04P06A (antibody, V domains shown)
VH: EVQLVESGGGLVQPGGSLRLSCAASGFTFSNYDMHWVRQATGKGLEWVSTIGTAGDTYYPGSVKGRFTISRENAKNSLYLQMNSLRAGDTAVYYCARGGDYYYGMDVWGQGTTVTVSS
VL: EIVLTQSPDTLSLSPGERATLSCRASQSLSSVYLAWYQQKPGQAPRLLIYGASSRATGIPDRFSGSGSGTDFTLTINRLEPEDFVVYYCQQYGSSPFTFGPGTKVDIK
notes: as for B1
B10: 75110_01E08A (antibody, V domains shown)
VH: EVQLVESGGGLVQPGGSLRLSCAASGFTFNNYDMHWVRQATGKGLEWVSTIGTAGDTYYPASVKGRFTIYRENAKNSLYLQMNSLRAGDTAVYYCARGGDYYYGMDVWGQGTTVTVSS
VL: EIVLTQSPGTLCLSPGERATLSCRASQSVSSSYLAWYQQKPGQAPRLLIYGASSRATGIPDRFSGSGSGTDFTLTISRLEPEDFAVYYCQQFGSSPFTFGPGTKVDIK
notes: as for B1
B11: 75110_01K10A (antibody, V domains shown)
VH: EVQLVESGGALVQPGGSLRLSCAASGFTFRNYDMHWVRQATGKGLEWVSTIGTAGDTYYPGSVKGRFTISRENAKNSLYLQMNSLRAGDTAVYYCARGGDYYYGMDVWGQGTTVTVSS
VL: EIVLTQSPDTLSLSPGERATLSCRASQSLSSVYLAWYQQKPGQAPRLLIYGASSRATGIPDRFSGTGSGTDFTLTISRLEPEDFAVYYCQQYGSSPFTFGPGTKVDIK
notes: as for B1
B12: 75110_01J17A (antibody, V domains shown)
VH: EVQLVESGGGLVQPGGSLRLSCAASGFTFSSYDMHWVRQGTGKGLEWVSTIGTADDTYYPGSVKGRFTISRENAENSLYLQMNSLRAGDTAVYYCARGGDYYYGMDVWGQGTTVTVSS
VL: EIVLAQSPGTLSLSPGERATLSCRASQSVYISYLAWYQQKPGQAPRLLIYGASSRATGIPDRFSGSGSGTDFTLTITRLEPEDFAVYYCQQFGSSPFTFGPGTKVDFK
notes: as for B1
B13: 75110_01G11A (antibody, V domains shown)
VH: EVQLVESGGGLVQPGGSLRLSCAASGFTFSSYDMHWVRQATGKGLEWVSTIGTAGDTYYPGSVKGRFTISRENARNSLFLQMNSLRAGDTAVYYCARGGDYYYGMDVWGQGTTVTVSS
VL: EIVLTQSPGTLSLFPGERATLSCRASQNTYSSYLAWYQQKPGQAPRLLIYGASNRATGIPDRFSGSGSGTDFTLTISRLEPEDFAVYYCQQHGTSPFTFGPGTKVDIK
notes: as for B1

Consider 13 molecules from US20220112288A1 (published 2022).

Some results are limits rather than exact numbers.

For orientation: Kd means the equilibrium constant for the complex coming apart. As usually defined, the koff is the rate constant with which the complex falls apart. In general, kon refers to the second-order rate constant of association.

The target in this experiment is T1, Recombinant human CD4 (R&D Systems, Cat. 10327-CD) (human, UniProt P01730 26-390, limits assumed).
T1 construct: Soluble analyte in the Octet assay
The experiment is described as follows: BLI Octet, mAb on anti-mouse Fc sensor, CD4 100/50/25 nM, 1:1 global fit.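 Further: antibodies loaded at 10 µg/mL, an unrelated mouse-derived antibody served as internal reference control, association and dissociation phases fitted after Savitzky-Golay smoothing.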 Background: In BLI a coated tip is dipped into the sample, and binding shifts an interference pattern.
As to B1, the Kd came to 13 nM, the Response was determined as 0.27, the off-rate constant (koff) amounted to 0.0017 s⁻¹ and the kon is 130000 M⁻¹ s⁻¹.

Regarding B2, the Kd came to 5.5 nM, the Response was 0.22, the koff was 0.00076 s⁻¹ and the kon was 140000 M⁻¹ s⁻¹.

In the case of B3, the Kd amounted to 10 nM, the Response was determined as 0.05, the dissociation rate constant (koff) was found to be 0.0008 s⁻¹ and the kon came out at 78000 M⁻¹ s⁻¹.

As for B4, the Kd amounted to 24 nM, the Response is 0.13, the koff was 0.0047 s⁻¹ and the kon came to 200000 M⁻¹ s⁻¹.

Take B5: the Kd came to 110 nM, the Response is 0.1, the koff is 0.0042 s⁻¹ and the on-rate (kon) came to 39000 M⁻¹ s⁻¹.

On to B6, for which the dissociation constant Kd stood at 5.9 nM, the Response was found to be 0.05, the off-rate (koff) came out at 0.00021 s⁻¹ and the kon was 35000 M⁻¹ s⁻¹.

Turning to B7, the Kd was 2.1 nM, the Response worked out at 0.08, the koff stood at 6.1e-05 s⁻¹ and the kon was 28000 M⁻¹ s⁻¹.

As to B8, the dissociation constant (Kd) is 66 nM, the Response amounted to 0.05, the koff worked out at 8.6e-05 s⁻¹ and the kon was 1300 M⁻¹ s⁻¹.

Take B9: the Kd is under 0.001 nM, the Response was 0.07, the koff was under 1e-07 s⁻¹ and the kon came to 24000 M⁻¹ s⁻¹.

Consider B10, for which the dissociation constant Kd came out at 0.26 nM, the Response turned out to be 0.14, the koff was found to be 2e-05 s⁻¹ and the on-rate constant (kon) was 77000 M⁻¹ s⁻¹.

For B11, the Kd was under 0.001 nM, the Response came to 0.05, the dissociation rate constant (koff) is under 1e-07 s⁻¹ and the kon worked out at 23000 M⁻¹ s⁻¹.

Consider B12, for which the dissociation constant (Kd) was found to be 2.8 nM, the Response was found to be 0.09, the koff worked out at 0.00012 s⁻¹ and the kon is 43000 M⁻¹ s⁻¹.

B13: the dissociation constant Kd was 1.7 nM, the Response is 0.11, the koff is 7.2e-05 s⁻¹ and the kon came out at 42000 M⁻¹ s⁻¹.
